Test [1] deals with T1, H1-mini2-cluster1+5+6-GCN4 without leader sequence and with FLAG-thrombin-foldon-HIS (SEQ ID NO: 6). The experiment in a line: ELISA/HTRF ratio, reference itself. The conditions noted are these: remark: other sources report otherwise. (In an ELISA, binding on a coated surface is turned into a signal by an enzyme label.)
Test [2] concerns the target T1, H1-mini2-cluster1+5+6-GCN4 without …. Description: ELISA signal over HTRF expression signal; average (AV). The conditions noted are these: remark: other sources report otherwise.

B1: CR6261 (antibody, V domains shown)
VH: EVQLVESGAEVKKPGSSVKVSCKASGGPFRSYAISWVRQAPGQGPEWMGGIIPIFGTTKYAPKFQGRVTITADDFAGTVYMELSSLRSEDTAMYYCAKHMGYQVRETMDVWGKGTTVTVSS
VL: QSVLTQPPSVSAAPGQKVTISCSGSSSNIGNDYVSWYQQLPGTAPKLLIYDNNKRPSGIPDRFSGSKSGTSATLGITGLQTGDEANYYCATWDRRPTAYVVFGGGTKLTVLG
As to B1, the fold increase of ratio over parental H1 mini-HA in test [1] was determined as 1 fold. In addition, the ratio binding/HTRF signal in test [2] was 5.94.

(Values after patent publication US20160136262A1.)
